In patent US7402303 (LABORATOIRES SERONO, dated 2008):
Numbering of substitutions follows the chain as printed. Names may count otherwise. Blank lines part the entries; values can stand above or below the binder they belong to.

Biological target: T1, recombinant CCR1 (UniProt P32246 1-355, limits assumed)
T1 construct: whole, on cells; The assay used membranes of CHO transfectants, not whole cells
T1 sequence (looked up): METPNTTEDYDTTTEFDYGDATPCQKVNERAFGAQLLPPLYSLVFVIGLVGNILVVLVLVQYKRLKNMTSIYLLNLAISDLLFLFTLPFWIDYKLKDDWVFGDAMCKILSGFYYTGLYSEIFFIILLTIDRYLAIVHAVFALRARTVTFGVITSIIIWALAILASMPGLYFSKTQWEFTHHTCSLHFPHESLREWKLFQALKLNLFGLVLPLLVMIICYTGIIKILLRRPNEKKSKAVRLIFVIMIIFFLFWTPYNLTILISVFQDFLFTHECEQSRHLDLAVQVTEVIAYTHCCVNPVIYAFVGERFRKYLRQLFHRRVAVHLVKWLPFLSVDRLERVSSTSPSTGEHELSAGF
Assay: SPA equilibrium competition with [125I]-MIP-1α on CHO-CCR1 membranes
Description: Competitors were prepared by serial dilutions of the unlabelled chemokines in binding buffer to cover the range 10^-6-10^-12 M. The binding buffer used was 50 mM HEPES, pH 7.2 containing 1 mM CaCl_2, 5 mM MgCl_2, 0.15 M NaCl and 0.5% BSA. Wheatgerm SPA beads (Amersham) were solubilised in PBS to 50 mg/ml, and diluted in the binding buffer to a 10 mg/ml, and the final concentration in the assay was 0.25 mg/well. Membranes prepared from CHO cells expressing CCR1 or CCR5 were stored at −80° C. and diluted in the binding buffer to a 80 μg/ml. Equal volumes of membrane and beads stocks were mixed before performing the assay to reduce background. […] The plates were incubated at room temperature with agitation for 4 hours. Radioactivity was measured and data analysed as described for the heparin-binding assay.
MIP-1α for binding to recombinant CCR1 and CCR5 in membranes prepared from CHO stable transfectants. There was no significant difference in any of the single mutations on both receptors (results not shown).

fold reduction in affinity against WT RANTES: 100 fold
B1: triple 40's RANTES mutant (R44A-K45A-R47A) (ligand)
chain: SPYSSDTTPCCFAYIARPLPRAHIKEYFYTSGKCSNPAVVFVTAANAQVCANPEKKWVREYINSLEMS
notes: E. coli protein, leader cleaved; also called R44A-K45A-R47A RANTES; triple 40's mutant

fold loss of affinity against WT RANTES: 3 fold
B2: triple 50's RANTES mutant (K55A-K56A-R59A) (ligand)
chain: B1 chain with A44R, A45K, A47R, K55A, K56A, R59A
notes: E. coli protein, leader cleaved; also called triple 50's mutant; 50's mutant
